{
  "source": "paper PMC5834491",
  "about": "“CryoEM structure of the human SLC4A4 sodium-coupled acid-base transporter NBCe1” (Nature Communications, 2018)",
  "proteins": {"B1": {"name": "Human N-terminally Strep(II)-tagged wild-type NBCe1-A (SLC4A4 sodium-bicarbonate cotransporter) (natural protein, UniProt Q9Y6R1-2 1-1035, looked up)", "chain": "MSTENVEGKPSNLGERGRARSSTFLRVVQPMFNHSIFTSAVSPAAERIRFILGEEDDSPAPPQLFTELDELLAVDGQEMEWKETARWIKFEEKVEQGGERWSKPHVATLSLHSLFELRTCMEKGSIMLDREASSLPQLVEMIVDHQIETGLLKPELKDKVTYTLLRKHRHQTKKSNLRSLADIGKTVSSASRMFTNPDNGSPAMTHRNLTSSSLNDISDKPEKDQLKNKFMKKLPRDAEASNVLVGEVDFLDTPFIAFVRLQQAVMLGALTEVPVPTRFLFILLGPKGKAKSYHEIGRAIATLMSDEVFHDIAYKAKDRHDLIAGIDEFLDEVIVLPPGEWDPAIRIEPPKSLPSSDKRKNMYSGGENVQMNGDTPHDGGHGGGGHGDCEELQRTGRFCGGLIKDIKRKAPFFASDFYDALNIQALSAILFIYLATVTNAITFGGLLGDATDNMQGVLESFLGTAVSGAIFCLFAGQPLTILSSTGPVLVFERLLFNFSKDNNFDYLEFRLWIGLWSAFLCLILVATDASFLVQYFTRFTEEGFSSLISFIFIYDAFKKMIKLADYYPINSNFKVGYNTLFSCTCVPPDPANISISNDTTLAPEYLPTMSSTDMYHNTTFDWAFLSKKECSKYGGNLVGNNCNFVPDITLMSFILFLGTYTSSMALKKFKTSPYFPTTARKLISDFAIILSILIFCVIDALVGVDTPKLIVPSEFKPTSPNRGWFVPPFGENPWWVCLAAAIPALLVTILIFMDQQITAVIVNRKEHKLKKGAGYHLDLFWVAILMVICSLMALPWYVAATVISIAHIDSLKMETETSAPGEQPKFLGVREQRVTGTLVFILTGLSVFMAPILKFIPMPVLYGVFLYMGVASLNGVQFMDRLKLLLMPLKHQPDFIYLRHVPLRRVHLFTFLQVLCLALLWILKSTVAAIIFPVMILALVAVRKGMDYLFSQHDLSFLDDVIPEKDKKKKEDEKKKKKKKGSLDSDNDDSDCPYSEKVPSIKIPMDIMEQQPFLSDSKPSDRERSPTFLERHTSC", "notes": "Electrogenic sodium bicarbonate cotransporter 1, NBCe1-A variant, human, full length; Only the membrane domain was modelled (474 residues per protomer); Met1-Gly400, Cys583-Leu637, Ser713-Trp734, Glu814-Lys825 and Asp966-Cys1035 were not modelled. numbers count on: the NBCe1-A isoform (1035 residues); Homodimer in amphipol PMAL-C8; The pTT vector is named (Addgene), no plasmid number is printed; …"}},
  "target": "the molecule itself",
  "test": "cryo-EM structure; single-particle cryoEM of NBCe1-A (~0.4 mg/ml) in amphipol PMAL-C8, 20 mM Tris-HCl pH 7.5, 150 mM NaCl; C2 symmetry imposed; 3.9 Å",
  "data": [
    {"protein": "B1", "values": [
      {"measurement": "stoichiometry N", "result": 2}
    ]}
  ]
}
